According to publication PMC6642173, “Acetylation regulates ribonucleotide reductase activity and cancer cell growth” (Nature Communications, 2019):
Where a chain is given by its changes, count along the chain named. Numbers in names are those of the source.

B1: Recombinant His6-tagged WT RRM2 (natural protein, human, UniProt P31350 1-389, looked up)
chain: MLSLRVPLAPITDPQQLQLSPLKGLSLVDKENTPPALSGTRVLASKTARRIFQEPTEPKTKAAAPGVEDEPLLRENPRRFVIFPIEYHDIWQMYKKAEASFWTAEEVDLSKDIQHWESLKPEERYFISHVLAFFAASDGIVNENLVERFSQEVQITEARCFYGFQIAMENIHSEMYSLLIDTYIKDPKEREFLFNAIETMPCVKKKADWALRWIGDKEATYGERVVAFAAVEGIFFSGSFASIFWLKKRGLMPGLTFSNELISRDEGLHCDFACLMFKHLVHKPSEERVREIIINAVRIEQEFLTEALPVKLIGMNCTLMKQYIEFVADRLMLELGFSKVFRVENPFDFMENISLEGKTNFFEKRVGEYQRMGVMSSPTENSFTLDADF
notes: RRM2, human; Purification may be described in the Supplementary Methods; also called recombinant RRM2 WT; source: E. coli, purified
B2: Recombinant K95R RRM2 (natural protein, human, UniProt P31350 1-389, looked up)
chain: B1 chain with K95R
notes: RRM2, human, with K95R; Probably His6-tagged and made in E. coli like the WT and K95Q proteins; source: recombinant, purified

Target: the molecule itself
Assay: cross-linking; purified recombinant RRM2 proteins cross-linked with 2 mM disuccinimidylsuberate (DSS), SDS-PAGE

| Protein | stoichiometry N |
| --- | --- |
| B1 | 2 |
| B2 | 2 |
